Article PMC3514216, “SRC Homology 2 Domain Binding Sites in Insulin, IGF-1 and FGF receptor mediated signaling networks reveal an extensive potential interactome” (Cell Communication and Signaling : CCS, 2012)
Non-standard residues stand in square brackets, D forms with d. No end group written: not given here. pY = N[C@@H](Cc1ccc(OP(=O)(O)O)cc1)C(=O)O

T1: GST-Vav1 SH2 domain (human, UniProt P15498 671-765)
T1 construct: SH2 domain of Vav1; source: E. coli BL21, purified (glutathione sepharose, NAP-10)
T1 sequence (looked up): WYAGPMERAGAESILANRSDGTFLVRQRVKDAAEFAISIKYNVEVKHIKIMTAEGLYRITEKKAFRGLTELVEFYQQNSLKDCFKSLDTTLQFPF

T2: GST-Sh2d1b SH2 domain (human, UniProt O14796 5-101)
T2 construct: SH2 domain of Sh2d1b (Eat-2); also called Eat-2; source: E. coli BL21, purified (glutathione sepharose, NAP-10)
T2 sequence (looked up): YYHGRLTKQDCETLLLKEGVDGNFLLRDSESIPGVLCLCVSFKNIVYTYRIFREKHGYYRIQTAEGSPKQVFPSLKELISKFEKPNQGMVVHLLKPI

T3: GST-Abl2 SH2 domain (human, UniProt P42684 173-263)
T3 construct: SH2 domain of Abl2; source: E. coli BL21, purified (glutathione sepharose, NAP-10)
T3 sequence (looked up): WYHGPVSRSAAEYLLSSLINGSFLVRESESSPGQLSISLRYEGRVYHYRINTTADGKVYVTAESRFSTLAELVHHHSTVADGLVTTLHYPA

T4: GST-Tenc1 SH2 domain (human, UniProt Q63HR2 1140-1247)
T4 construct: source: E. coli BL21, purified (glutathione sepharose, NAP-10)
T4 sequence (looked up): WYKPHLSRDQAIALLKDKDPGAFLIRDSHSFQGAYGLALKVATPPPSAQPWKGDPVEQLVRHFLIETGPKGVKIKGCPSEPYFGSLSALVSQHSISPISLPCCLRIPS

T5: GST-Abl1 SH2 domain (human, UniProt P00519 127-217)
T5 construct: SH2 domain of Abl1; source: E. coli BL21, purified (glutathione sepharose, NAP-10)
T5 sequence (looked up): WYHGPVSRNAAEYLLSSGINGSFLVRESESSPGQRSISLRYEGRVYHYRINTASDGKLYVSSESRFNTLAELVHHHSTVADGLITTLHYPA

T6: GST-Sh3bp2 SH2 domain (human, UniProt P78314 457-555)
T6 construct: SH2 domain of Sh3bp2; source: E. coli BL21, purified (glutathione sepharose, NAP-10)
T6 sequence (looked up): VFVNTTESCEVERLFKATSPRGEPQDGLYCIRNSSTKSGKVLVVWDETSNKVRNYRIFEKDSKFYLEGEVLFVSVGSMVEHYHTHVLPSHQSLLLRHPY

T7: GST-Itk SH2 domain (human, UniProt Q08881 239-338)
T7 construct: SH2 domain of Itk; source: E. coli BL21, purified (glutathione sepharose, NAP-10)
T7 sequence (looked up): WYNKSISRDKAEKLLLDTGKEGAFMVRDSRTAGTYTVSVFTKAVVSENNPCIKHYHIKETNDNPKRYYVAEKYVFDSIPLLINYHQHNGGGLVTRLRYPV

T8: GST-Shc1 SH2 domain (human, UniProt P29353 488-579)
T8 construct: SH2 domain of Shc1; source: E. coli BL21, purified (glutathione sepharose, NAP-10)
T8 sequence (looked up): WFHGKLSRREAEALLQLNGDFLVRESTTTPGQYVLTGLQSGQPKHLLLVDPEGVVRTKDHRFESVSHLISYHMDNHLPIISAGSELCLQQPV

T9: GST-Ship2 SH2 domain (human, UniProt O15357 21-117)
T9 construct: SH2 domain of Ship2; source: E. coli BL21, purified (glutathione sepharose, NAP-10)
T9 sequence (looked up): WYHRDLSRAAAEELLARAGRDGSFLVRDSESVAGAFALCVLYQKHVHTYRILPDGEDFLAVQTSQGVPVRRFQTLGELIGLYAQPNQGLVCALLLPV

B1: FGFR1 (Y463) phosphopeptide GVSEpYELPEDP, Rhodamine B-labelled (peptide)
peptide: GVSE[pY]ELPEDP
modifications: not fully specified (N-terminus); also: Rhodamine B label, site not given here
notes: FGFR1 around Y463; also called FGFR1 pY-463; source: synthetic peptide (FMOC chemistry), purified by LC/MS
B2: FGFR3 (Y760) phosphopeptide STDEpYLDLSAP, Rhodamine B-labelled (peptide)
peptide: STDE[pY]LDLSAP
modifications: also: Rhodamine B label, site not given here
notes: FGFR3 around Y760; source: synthetic peptide (FMOC chemistry), purified by LC/MS
B3: IRS-1 (Y896) phosphopeptide SPGEpYVNIEFG, Rhodamine B-labelled (peptide)
peptide: SPGE[pY]VNIEFG
modifications: also: Rhodamine B label, site not given here
notes: IRS-1 around Y896; source: synthetic peptide (FMOC chemistry), purified by LC/MS
B4: p62DOK1 (Y398) phosphopeptide KEEGpYELPYNP, Rhodamine B-labelled (peptide)
peptide: KEEG[pY]ELPYNP
modifications: not fully specified (N-terminus); also: Rhodamine B label, site not given here
notes: p62DOK1 around Y398; source: synthetic peptide (FMOC chemistry), purified by LC/MS
B5: p130Cas (Y362) phosphopeptide AEDVpYDVPPPA, Rhodamine B-labelled (peptide)
peptide: AEDV[pY]DVPPPA
modifications: not fully specified (N-terminus); also: Rhodamine B label, site not given here
notes: p130Cas (BCAR1) around Y362; source: synthetic peptide (FMOC chemistry), purified by LC/MS
B6: p130Cas (Y234) peptide EQDEYDIPRHL, SPOT array (peptide)
peptide: EQDE[pY]DIPRHL
modifications: also: membrane-bound on SPOT array
notes: p130Cas (BCAR1) around Y234; source: synthetic peptide, SPOT synthesis on cellulose membrane
B7: IRS-1 (Y1179) phosphopeptide NGLNpYIDLDLV, Rhodamine B-labelled (peptide)
peptide: NGLN[pY]IDLDLV
modifications: not fully specified (N-terminus); also: Rhodamine B label, site not given here
notes: IRS-1 around Y1179; source: synthetic peptide (FMOC chemistry), purified by LC/MS

Experiments:
Settings in all cases: both partners purified
[1] = target: T10, GST-Nck1 SH2 domain (human, UniProt P16333 282-376); experiment: fluorescence polarisation; Rhodamine B-labelled peptide in solution with SH2 domain; Beacon 2000; as previously described [40]
T10 construct: SH2 domain of Nck1; source: E. coli BL21, purified (glutathione sepharose, NAP-10)

[2] = target: T11, GST-Src SH2 domain (human, UniProt P12931 151-248); experiment: as above
T11 construct: SH2 domain of Src; source: E. coli BL21, purified (glutathione sepharose, NAP-10)

[3] = target: T12, GST-Crk SH2 domain (human, UniProt P46108 13-118); experiment: as above
T12 construct: SH2 domain of Crk; source: E. coli BL21, purified (glutathione sepharose, NAP-10)

[4] = target: T13, GST-CrkL SH2 domain (human, UniProt P46109 14-102); experiment: as above
T13 construct: SH2 domain of CrkL; source: E. coli BL21, purified (glutathione sepharose, NAP-10)

[5] = target: T1, GST-Vav1 SH2 domain; experiment: as above
[6] = target: T2, GST-Sh2d1b SH2 domain; experiment: as above
[7] = target: T3, GST-Abl2 SH2 domain; experiment: as above
[8] = target: T14, GST-Shb SH2 domain (human, UniProt Q15464 410-504); experiment: as above
T14 construct: SH2 domain of Shb; source: E. coli BL21, purified (glutathione sepharose, NAP-10)

[9] = target: T4, GST-Tenc1 SH2 domain; experiment: as above
[10] = target: T15, GST-Grb2 SH2 domain (human, UniProt P62993 60-152); experiment: as above
T15 construct: SH2 domain of Grb2; source: E. coli BL21, purified (glutathione sepharose, NAP-10)

[11] = target: T16, GST-Sh2b SH2 domain (human, UniProt Q9NRF2 527-625); experiment: as above
T16 construct: SH2 domain of Sh2b; source: E. coli BL21, purified (glutathione sepharose, NAP-10)

[12] = target: T5, GST-Abl1 SH2 domain; experiment: as above
[13] = target: T6, GST-Sh3bp2 SH2 domain; experiment: as above
[14] = target: T7, GST-Itk SH2 domain; experiment: as above
[15] = target: T17, GST-Brk SH2 domain (human, UniProt Q13882 78-170); experiment: as above
T17 construct: SH2 domain of Brk; source: E. coli BL21, purified (glutathione sepharose, NAP-10)

[16] = target: T18, GST-Fer SH2 domain (human, UniProt P16591 460-550); experiment: as above
T18 construct: SH2 domain of Fer; source: E. coli BL21, purified (glutathione sepharose, NAP-10)

[17] = target: T19, GST-Fgr SH2 domain (human, UniProt P09769 144-241); experiment: as above
T19 construct: SH2 domain of Fgr; source: E. coli BL21, purified (glutathione sepharose, NAP-10)

[18] = target: T8, GST-Shc1 SH2 domain; experiment: as above
[19] = target: T9, GST-Ship2 SH2 domain; experiment: as above
[20] = target: T20, GST-Yes SH2 domain (human, UniProt P07947 158-255); experiment: peptide or protein array; SPOT array of 192 membrane-bound 11-mer phosphotyrosine peptides; GST-SH2 0.25 uM in TBS-T with 5% nonfat milk and 1 mM DTT, 1.5 h, room temperature; anti-GST and Alexa-Fluor-680 secondary, Li-Cor Odyssey; array positive >3X the array mean, array negative <1X, indeterminate between
T20 construct: SH2 domain of the kinase Yes; source: E. coli BL21, purified (glutathione sepharose, NAP-10)
T20 sequence (P07947 158-255): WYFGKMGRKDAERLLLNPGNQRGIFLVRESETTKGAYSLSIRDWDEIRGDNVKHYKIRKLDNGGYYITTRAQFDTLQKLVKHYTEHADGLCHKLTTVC

T12 sequence (P46108 13-118): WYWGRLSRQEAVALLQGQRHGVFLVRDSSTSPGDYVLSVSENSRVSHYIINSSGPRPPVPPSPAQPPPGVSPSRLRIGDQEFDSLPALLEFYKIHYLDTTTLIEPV
T13 sequence (P46109 14-102): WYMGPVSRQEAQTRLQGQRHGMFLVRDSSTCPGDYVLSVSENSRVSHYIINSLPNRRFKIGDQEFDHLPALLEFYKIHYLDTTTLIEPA
T15 sequence (P62993 60-152): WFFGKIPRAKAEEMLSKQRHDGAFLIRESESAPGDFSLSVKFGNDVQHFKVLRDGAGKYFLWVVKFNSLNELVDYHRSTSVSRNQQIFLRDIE
T14 sequence (Q15464 410-504): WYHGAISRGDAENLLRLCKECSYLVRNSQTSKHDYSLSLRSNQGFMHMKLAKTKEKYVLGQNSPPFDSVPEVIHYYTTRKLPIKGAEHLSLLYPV
T17 sequence (Q13882 78-170): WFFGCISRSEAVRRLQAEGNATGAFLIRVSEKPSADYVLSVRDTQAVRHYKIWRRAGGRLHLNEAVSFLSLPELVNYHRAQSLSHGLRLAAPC
T18 sequence (P16591 460-550): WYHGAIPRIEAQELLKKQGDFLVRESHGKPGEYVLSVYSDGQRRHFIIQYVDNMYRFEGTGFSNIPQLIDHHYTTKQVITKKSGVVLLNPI

| Binder | Kd [1] [µM] | Kd [2] [µM] | Kd [3] [µM] | Kd [4] [µM] | Kd [7] [µM] | Kd [12] [µM] | also measured |
| --- | --- | --- | --- | --- | --- | --- | --- |
| B1 | 2.45 | 6.85 | 44 | > 50 | – | – | Kd [5]: 1.87 µM |
| B2 | – | – | – | – | 27 | – | Kd [6]: 5.3 µM; Kd [8]: > 50 µM |
| B3 | – | 2.21 | > 20 | – | 3.66 | 7.48 | Kd [9]: 24 µM; Kd [10]: 0.8 µM; Kd [11]: 3.58 µM |
| B4 | 4.37 | 5.06 | 23.7 | – | 3.47 | 5.77 | Kd [13]: 1.68 µM; Kd [14]: 5.43 µM; Kd [15]: 0.42 µM; Kd [16]: 13.3 µM; Kd [17]: 2.04 µM; Kd [18]: 5.74 µM; Kd [5]: 4.73 µM |
| B5 | 0.93 | – | 0.35 | 0.99 | 14 | – | Kd [19]: 16.5 µM; Kd [18]: 32.8 µM |
| B6 | – | – | – | – | – | – | binding result [20]: binds |
| B7 | – | 9.94 | – | > 50 | – | 22.2 | Kd [10]: > 50 µM |
